This is an account of results in the nanobody polyreactivity screen of Harvey et al. (2022).

This data set in a line: yeast display, Sf9 membrane polyspecificity reagent, FACS + sequencing; frameworks hold sequencing errors. In outline:
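Synthetic nanobody libraries on Saccharomyces cerevisiae BJ5465 were galactose-induced for 36–48 hours, stained 1 hour at 4 °C with 10% biotinylated, detergent-solubilized Sf9 membrane reagent and enriched on streptavidin microbeads. FACS then separated cells into low and high (top ~1%) gates by anti-HA (expression) and streptavidin (reagent binding) fluorescence. Genes were colony-PCR amplified, MiSeq 2 × 250 sequenced and CDR-length filtered. A clone's polyreactivity label is that of its gate of origin.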
Regarding “QVQLVESGGGLVQAGGSLRLSCAASGFIFRHNAMVWYRQAPGKERELVAAITKRGGDTYYADSVKGRFTISRDNAKNTVYLQMISLKPEDTAVYYCNVDVRYPKYYYWGQGTQVTVSS”, the “polyreactivity (PSR sort gate)” value was “low polyreactivity”.

Regarding “QVQREESGGGLFQAGGTLRLSCAASGFTFVWYAMGWNRQATGKERELVAAITRSGGSTYYADSVKGRFTISRDNAKNTVYLQMNSLKPEDTAVYYCNVSYGTFPGRALFANNFYYWGQGTQVTVSS”, the “polyreactivity (PSR sort gate)” value is recorded as “low polyreactivity”.

Regarding “QVQLVESGGGLVQAGGSLRLSCAASGSTFTGYALGWYRQAPGKEREFVATITKRGGRTYYADSVKGRFTISRDNAKNTVYLQMHSLKPEDTAVYYCARDQGKLVVPYDYWGQGTQVTVSS”, the “polyreactivity (PSR sort gate)” value is recorded as “high polyreactivity”.

Take “QVQLVESGGGLVQAGGSLRLSCAASGFIFYGNTMGWYRQAPGKERELVAAISGSTGGTYYADSVKGRFTISRDNAKNTVYLQMNSLKPEDTAVYYCAAVVPWYASYSRYYYWGQGTQVTVSS”: the “polyreactivity (PSR sort gate)” value is “high polyreactivity”.

With “QVQLVESGGGLVQAGGSLRLSCAASGRTFLYVMGWNIQAPGKERELVAASSRGGSTSYADSVKGRFTISRDNAKNTVYLQMNSMKPEVTAVYYCAATNYWRDGYWGQGTQVTVSS”, the “polyreactivity (PSR sort gate)” value is “high polyreactivity”.

Turning to “QVQLVESGGGLVQAGGSLRLSCAASGRTFVVNAMGGYRQAPGKERELVAAITYSGDTTYYADSVKGRFTISRDNAKNTVYLQMNSLKPEDTAVYYCAADTGVVSPPAGLLIGPFDSWGQGTQVTVSS”, the “polyreactivity (PSR sort gate)” value is “low polyreactivity”.

Regarding “QVQLVESGGGLVQAGGSLRLSCAASGNTFYYNAMGWYRQAPGKEREFVAAITSSGGGTYYADSVKGRFTISRDNAKNTVYLQMNSLKPEDTAVYYCAADATYRKQVIFYYWGQGTQVTVSS”, the “polyreactivity (PSR sort gate)” value was “low polyreactivity”.

With “QVQLVESGGGLVQAGGSLRLSCAASGSTFAVNAMGWYRQAPGKERELVAAISGSGGRTYYADSVKGRFTISRDNAKNTVYLQMNSLKPEETAFYYCATELRAPYRSSGAYHYDYWGQGTQVTVSS”, the “polyreactivity (PSR sort gate)” value is “low polyreactivity”.

In the case of “QVQLVESGGGLVQAGGSLRLSCAASGRTFYGYAMGWYRQAPGKERELVASISRDGSTNYADSVKGRFTISRDNAKNTVYLQMNSLKPEDTAVYYCAGDIWYYRYPIYYYSYDYWGQGTQVTVSS”, the “polyreactivity (PSR sort gate)” value was “low polyreactivity”.

On to “QVQLVESGGGLVQAGGSLRLNCAASGITFGYNAMGWYRQPPGKERELVAAISSRGGSTYYADSVKGRFTISRDNAKNTVYLQMNSMKPEDTAVYYCAKDGGPGRYAWYWPVRMGYWGQGTQVTVSS”, for which the “polyreactivity (PSR sort gate)” value is listed as “high polyreactivity”.

On to “QVQLVESGGGLVQAGGSLRLSCAASGRTLENYAMGWSRQAPGKERELVATINGRSGNTYYADSVKGRFTLSRDNAKNTVYLQMNSLKPEDTAVYYCNAYYEGYYTVGYDYWGQGTQVTVSS”, for which the “polyreactivity (PSR sort gate)” value is reported as “high polyreactivity”.

Consider “QVQLVESGGGLVQAGGSLRLSCAASGRILGTYAMGWYRQAPGKERELVAAISGSGGDTYYADSVKGRFTISRDNAKNTVYLQMNSLKPEDTAVYYCAAEVPFTGGFFKYYYWGQGTQVTVSS”, for which the “polyreactivity (PSR sort gate)” value is recorded as “low polyreactivity”.

On to “QVQLVESGGGLVQAGGSLRLSCAASGRIFYPYFMGWYRQAPGKERELVAAISASGGRTYYADSVKGRFTISRDNSKNTVYLQMNSLKPEDTAVYYCNARTVPAGTLYDYWGQGTQVTVSS”, for which the “polyreactivity (PSR sort gate)” value is “low polyreactivity”.

As for “QVQLVESGGGLVQAGGSLRLSCAASGRTFSPYALGWSRKAPGKERELVAAITSRGSNTFYADSVKGRFTISRDNAKNTVYLQMNSLKPEDTAVYYCNKYTIVSRYDYWGQGTQVTVSS”, the “polyreactivity (PSR sort gate)” value was “high polyreactivity”.

Regarding “QVQLVESGGGLVQAGGSLRLSCAASGSISGVYAMGWYRQAPGKERELVAAISRSGGSTYYADSVKGRFTISRDNAKNTVYLQMNSLKPEDTAVYYCAAEYTYYSYGGNYDYWGQGTQVTVSS”, the “polyreactivity (PSR sort gate)” value is recorded as “low polyreactivity”.

As to “QVQLVESGGGLVQAGGSLRLSCAASGRIFYRYAMGWYRQAPGKERELVAAITQSGGSTFYADSVKGRFTISRDNAKNTVYLQMNSLKPEDTAVYYCNRRGPGFYSTRFNYWGQGTQVTVSS”, the “polyreactivity (PSR sort gate)” value is listed as “high polyreactivity”.

On to “QVQLVESGGGLVQAGGSLRLSCAASGSIFRVNDMGWYRQAPGKERELVATISRSGAITYYADSVKGRFTISRDNAKNTVNLQMNSLKPEDNAVYYCAADFLSRDWGQGTQVTLSS”, for which the “polyreactivity (PSR sort gate)” value is “low polyreactivity”.

As to “QVQLVESGGGLVQAGGSLRLSCAASGSIIGTYAMGWYRQAPGKERELVAAISSSGGRTYYADSVKGRFTISRDNAKNTVYLQMNSLKPEDTAVYYCNTRPGTVFRAGGDYWGQGTQVTVSS”, the “polyreactivity (PSR sort gate)” value was “high polyreactivity”.

For “QVQLVESGGGLVQAGGSLRLICAASGTFTSNAMGWYRQAPGKERELVAVITSTDSTNYADSVKGRFTISRDNAKNTVYLPLNSLKPEDTAVYYCAGSKYTVVQQYWDVLFDYWGQGTQVTVSS”, the “polyreactivity (PSR sort gate)” value was “low polyreactivity”.

For “QVQLVESGGGLVQAGGSLRLSCAASGSIFHHNAMGWYRQAPGKERELVAAISSRSGNTYYADSVKGRFTISRDNAKNTVYLQMNSLKPEDTAVYYCAKAFRGHYWGQGTQVTVSS”, the “polyreactivity (PSR sort gate)” value was “high polyreactivity”.

On to “QVQLVESGGGLVQAGGSLRLSCAASGRIFTTYAMGWYRQAPGKERELVAAISRSGGSTYYADSVKGRFTISRDNAKNTVYLQMTSLNPEDTAVYYCAAVPTSNSFRSSFYYWGQGTQVTVSS”, for which the “polyreactivity (PSR sort gate)” value is reported as “high polyreactivity”.

As for “QDQLVESAGGLVQAGGSLRLICAASGSTFALYAMGWYRQAAGTERELVAAISRSGGRTYYADSVKGRFTISRDNPKNTVYLQMNSLKPDDTAVYYCAADFSRPGGLDESWGQGTQVTVSS”, the “polyreactivity (PSR sort gate)” value was “high polyreactivity”.

For “QVQLVESGGGLVQAGGSLRLSCAASGFTFERNAMGWYRQAPGKERELVATINGSSDSTYYSDSVKGRFTISRDNAKNTVYLQMNSLKPEDTAVYYCNADSITEGNSRYSHFDYWGQGTQVTVSS”, the “polyreactivity (PSR sort gate)” value is on record as “low polyreactivity”.

Consider “QVQLVESGGGLVQAGGSLRLSCAASGRIFGYYAMGWYRQAPGKERELVAAIDSSGGSTTYADSVKGRFTISRDYAKNTVYLQMNSLKPEDTAVYYCNAGYALRSGPWYYYELDYWGQGTQVTVSS”, for which the “polyreactivity (PSR sort gate)” value is on record as “low polyreactivity”.

On to “QVQLVESGGGLVQAGGSLRLSCAASGFIFSYNAMGWYRQAPGKERELVAAISSIGSGTYYADSVKGRFTISRDNAKNTVYLQMNSLKPEDTAVYYCAKYLRPRIGSRYYYWGQGTQVTVSS”, for which the “polyreactivity (PSR sort gate)” value is listed as “high polyreactivity”.

For “QVQLVESGGGLVQAGGSLRLSCAASGRIFRAYTMGWYRQAPGKARELVAAISRSTGSTNYADSVKGRFTISRDNAKNTVYLQMNSLKPEDTAVYFCNARSRWYLVGQQSTRLDYWGQGTQVTVSS”, the “polyreactivity (PSR sort gate)” value is reported as “high polyreactivity”.

With “QVQLVESGGGLVQAGGSLRLSCAASGITFGVYAMGWYRQAPGKERELVAAISSGDSTYYADSVKGRFTISRDNAKNTVYLQMNSLKPEDTAVYYCNAYYGVFYWDAEYGYDYWGQGTQVTVSS”, the “polyreactivity (PSR sort gate)” value was “high polyreactivity”.

For the sequence “QVQLVESGGGLVQAGGSLRLSCAASGSTFPGNAMGWYRQAPGKERELVASISGGGDSTYYADSVKGRFTISRDYAKNTVYLQMNSLKPEDTAVYYCAADYRQEPGYTGYYYWGQGTQVTVSS”, the “polyreactivity (PSR sort gate)” value is reported as “low polyreactivity”.

Regarding “QVQLVESGGGLVQAGGSLRLSCAASGFIFWYNAMGWYRQAPGKERELVASISGSGGSTYYADSVKGRFTISRDNAKNTVYLQMNSLKPEDTAVYYCAVYFFSFWGQGTQVTVSS”, the “polyreactivity (PSR sort gate)” value is “low polyreactivity”.

Take “QVQLVESGGVLVQSGGSLRLSCAASGITLSRYAMGWYRQAPGKERELVAAISRRGGSTYYADSVKGRFTISRDNAKNSVYLQLNSLKPEDTAVDYCAATRYASLSDSGFNYWGQGTQVTVSS”: the “polyreactivity (PSR sort gate)” value is reported as “high polyreactivity”.

For “QVQLVESGGGLVQAGGSLRLSCAASGGIFVRYAMGVYRQAPGKERELVAAITGTGSSTYYADSVKGRFTISRDNAKNTVYLQMNSLKPEDTAVYYCAAARYSNYGYWGQGTQVTVSS”, the “polyreactivity (PSR sort gate)” value was “high polyreactivity”.

Regarding “QVQLVESGGGLVQAGGSLRLSCAASGRTFVSYAMGWYRQAPGKERELVAAIRYRGGSTYYADSVKGRFTISRDNAMNTVYLQMNSLKPEDTAVYYCAANQGRYNIYSNYDYWGQGTQVTVSS”, the “polyreactivity (PSR sort gate)” value is on record as “high polyreactivity”.

With “QVQHVESGGGLVQAGGSLRLSCAASGSTISNNAMGWYRQAPGKERELVAGINSSGGRTYYADSVKGRFTISRDNAKNTVYLQMNSLKPEDTAVYYCNADNFRRYGYWGQGTQVTVSS”, the “polyreactivity (PSR sort gate)” value was “high polyreactivity”.

Turning to “QVQLVESGGGLVQAGGSLRLSCAASGFIFKKYVMGWYRQAPGKERELVAGSSRSGGSTYYADSVKGRFTISRDNAKNTVYVQMNSLKPEDTAVYYCAAYIYQSPTRGGGYWGQGTQVSVSS”, the “polyreactivity (PSR sort gate)” value is “high polyreactivity”.

For the sequence “QVQLVESGGGLVQAGGSLRLSCAASGRTFSKYTMGWYRQATGKERELVAVISRSGTRTYYADSVKGRFTISRDNAKNTVYLQMNSLKREDTAVYYCAAKDERRSFGMGYWGQGTQVTVSS”, the “polyreactivity (PSR sort gate)” value was “high polyreactivity”.

Regarding “QVQLVESGGGLVQAGGSLRLTCAASGIIFDTNAMGWYRQAPGKERELVATITQRGGTTYYADSVKGRFTISRDNAKNTVYLQMNSLKPEDTAVYYCNAGPVRLPYDSWGQGTQVTVSS”, the “polyreactivity (PSR sort gate)” value was “low polyreactivity”.

In the case of “QVQLVESGGGLVQAGGSLRLSCAASGSIFYYYAIGWYRKAPGKEREFVATIRRSGASTYYADSVKGRFTISRDNAKNTVYLQMNSLKPEDTAVYYCNAASARRPIYEAARWSKYDYWGQGTQVTVSS”, the “polyreactivity (PSR sort gate)” value is “low polyreactivity”.

With “QVQLVESGGGLVQAGGSLRLSCAASGRIFLRNAMGWYRQAPGKERELVAAISSSGGRTYYADSVKGRFTISRDNAKNTVYLQMNSLKPEDTAVYYCNARWHGSFDYWGQGTQVTVSS”, the “polyreactivity (PSR sort gate)” value was “low polyreactivity”.

On to “QVQLVESGGGLVQAGGSLRLSCAASGFTFSFYAMGWYIQAPGKERELVAVISKSGGRTYYADSVKGRFTISRDNAKNTVYLQMNSLKPEDTAVYYCAAKRTSTRIYTFEYWGQGTQVTVSS”, for which the “polyreactivity (PSR sort gate)” value was “high polyreactivity”.

As to “QVQLVESGGGLVQAGGSLRLSCAASGSTFDTNAMGWYRQAPGKERELVATITSIGGSTYADSVKGRFTISRDNAKNTVYLQMNSLKPEDTAVYYCATDYVEIDYDYDYWGQGTQVTLSS”, the “polyreactivity (PSR sort gate)” value is on record as “low polyreactivity”.
